Laboratory results taken from article PMC9200632 (2022).

Biological target: T1, MBP–FlaA (C. jejuni flagellin FlaA, amino acids 177–482) (C. jejuni, biotinylated (EZ-Link NGS-PEG4-Biotin kit) in the BLI)
T1 chain: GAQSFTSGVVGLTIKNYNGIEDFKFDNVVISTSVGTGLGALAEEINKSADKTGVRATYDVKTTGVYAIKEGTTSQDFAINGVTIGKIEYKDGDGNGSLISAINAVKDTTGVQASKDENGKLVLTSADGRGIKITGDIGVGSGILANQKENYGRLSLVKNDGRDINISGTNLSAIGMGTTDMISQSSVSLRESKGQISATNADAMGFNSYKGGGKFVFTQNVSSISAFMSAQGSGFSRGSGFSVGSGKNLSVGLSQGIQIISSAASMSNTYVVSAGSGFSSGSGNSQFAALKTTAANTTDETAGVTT
Test: BLI

B1: aa682 (VHH)
VHH: QVQLVESGGGLVQAGGSLRVSCTASVSTFSINALGWYRQAPGKARELVAAIGSDGTVYYTDSVKGRFTISRDNAKNTVSLQMSSLKPEDTAVYYCNAAGKRIGSDGSIWFAVASFGSWGQGTQVTVSS
B1 gave a koff of 0.024 s⁻¹.
